Test results taken from patent publication US20240116985A1 (published 2024).
Starred links: 1 amine or outer side, 2 acyl side, 3 side chain; linkers in the order of their positions; H or OH if unused. Positions of bridges follow the written chain, without caps; N, C: chain ends. Non-standard residues stand in square brackets, D forms with d. Primed or numbered codes have the meaning given here. ReN = (R)-5-(((allyloxy)carbonyl)(methyl)amino)-2-amino-2-methylpentanoic acid, stapling residue, C=CCOC(=O)N(C)CCC[C@@](C)(N[*:1])C(=O)[*:2]; PyrS(3) = (S)-1-((allyloxy)carbonyl)-3-aminopyrrolidine-3-carboxylic acid, stapling residue, C=CCOC(=O)N1CC[C@@](N[*:1])(C(=O)[*:2])C1; PyrS″ = (S)-1-((allyloxy)carbonyl)-3-aminopyrrolidine-3-carboxylic acid (stapling residue), C=CCOC(=O)N1CC[C@@](N[*:1])(C(=O)[*:2])C1; SeN = (S)-5-(((allyloxy)carbonyl)(methyl)amino)-2-amino-2-methylpentanoic acid, C=CCOC(=O)N(C)CCC[C@](C)(N[*:1])C(=O)[*:2]; RdN = (R)-4-(((allyloxy)carbonyl)(methyl)amino)-2-amino-2-methylbutanoic acid, C=CCOC(=O)N(C)CC[C@@](C)(N[*:1])C(=O)[*:2]; PyrS = (S)-1-((allyloxy)carbonyl)-3-aminopyrrolidine-3-carboxylic acid, C=CCOC(=O)N1CC[C@@](N[*:1])(C(=O)[*:2])C1; R7″ = (R)-2-amino-2-methylnon-8-enoic acid (stapling residue), C=CCCCCC[C@@](C)(N[*:1])C(=O)[*:2]; R7 = (R)-2-amino-2-methylnon-8-enoic acid, C=CCCCCC[C@@](C)(N[*:1])C(=O)[*:2]; R6 = (R)-2-amino-2-methyloct-7-enoic acid, C=CCCCC[C@@](C)(N[*:1])C(=O)[*:2]; Phe(4-COOH) = N[C@@H](Cc1ccc(C(=O)O)cc1)C(=O)O; S7 = C[C@@](CCCCCC=[*:3])(N[*:1])C(=O)[*:2]; Bip = N[C@@H](Cc1ccc(-c2ccccc2)cc1)C(=O)O; 3Pal = N[C@@H](Cc1cccnc1)C(=O)O; R8 = C=CCCCCCC[C@@](C)(N)C(=O)O; Aad = N[C@@H](CCCC(=O)O)C(=O)O; Cha = N[C@@H](CC1CCCCC1)C(=O)O; R5 = C=CCCC[C@@](C)(N)C(=O)O; hLeu = CC(C)CC[C@H](N)C(=O)O; S5 = C=CCCC[C@](C)(N)C(=O)O; Nle = CCCC[C@H](N)C(=O)O

T1: full-length beta-Catenin (Uniprot ID P35222) (Homo sapiens (Human), UniProt P35222 2-781)
T1 construct: The assay text says 'full-length'; also called B-Catenin; bCat
T1 sequence: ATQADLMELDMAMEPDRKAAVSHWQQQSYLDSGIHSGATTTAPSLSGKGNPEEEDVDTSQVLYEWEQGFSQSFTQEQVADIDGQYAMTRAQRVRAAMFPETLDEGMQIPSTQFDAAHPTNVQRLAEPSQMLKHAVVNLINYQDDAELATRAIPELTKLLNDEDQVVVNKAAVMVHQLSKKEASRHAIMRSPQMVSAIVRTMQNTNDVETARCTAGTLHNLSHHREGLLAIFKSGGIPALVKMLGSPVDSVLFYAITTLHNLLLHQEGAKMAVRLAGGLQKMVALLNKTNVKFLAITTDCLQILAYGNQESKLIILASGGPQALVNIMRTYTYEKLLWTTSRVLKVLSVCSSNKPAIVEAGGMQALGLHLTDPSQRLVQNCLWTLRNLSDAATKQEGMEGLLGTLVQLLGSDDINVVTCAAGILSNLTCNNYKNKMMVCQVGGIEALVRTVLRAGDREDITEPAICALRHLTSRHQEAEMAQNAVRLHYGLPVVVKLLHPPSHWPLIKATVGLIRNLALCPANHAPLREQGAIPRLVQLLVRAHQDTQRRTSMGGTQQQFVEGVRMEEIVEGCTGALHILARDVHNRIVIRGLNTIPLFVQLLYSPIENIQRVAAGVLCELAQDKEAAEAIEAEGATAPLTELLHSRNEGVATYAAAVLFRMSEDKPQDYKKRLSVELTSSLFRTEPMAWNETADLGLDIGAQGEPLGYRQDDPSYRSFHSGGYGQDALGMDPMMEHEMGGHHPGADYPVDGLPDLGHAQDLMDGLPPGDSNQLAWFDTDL

B1: I-32 (peptide)
peptide: FDAXDDAAFVXFWQ
modifications: not fully specified; Ac-Phe-Asp-Ala-Az-Asp-Asp-Ala-Ala-Phe-Val-S7-Phe-Trp-Gln-NH2 as printed: N-terminal acetyl, C-terminal amide, Az at 4 stapled to S7 at 11
notes: Stapled peptide composition
B2: I-29 (peptide)
peptide: FDAXDDAAFVXFWQ
modifications: not fully specified; Ac-Phe-Asp-Ala-ReN-Asp-Asp-Ala-Ala-Phe-Val-S6-Phe-Trp-Gln-NH2 as printed: N-terminal acetyl, C-terminal amide, ReN at 4 stapled to S6 at 11
notes: Stapled peptide composition
B3: I-24 (peptide)
peptide: Ac-FDA[R8]DDA[Aad]FV[PyrS]FWQ-NH2
modifications: staple 4-11; not fully specified; printed as Ac-Phe-Asp-Ala-R8-Asp-Asp-Ala-Aad-Phe-Val-PyrS-Phe-Trp-Gln-NH2
notes: Stapled peptide composition
B4: I-18 (peptide)
peptide: Ac-FDA[R8]D[hLeu]AAFV[PyrS]FWQ-NH2
modifications: staple 4-11; not fully specified; printed as Ac-Phe-Asp-Ala-R8-Asp-hLeu-Ala-Ala-Phe-Val-PyrS-Phe-Trp-Gln-NH2
notes: Stapled peptide composition
B5: I-28 (peptide)
peptide: FDAXDDAAFVXFWQ
modifications: not fully specified; Ac-Phe-Asp-Ala-ReN-Asp-Asp-Ala-Ala-Phe-Val-S6-Phe-Trp-Gln-NH2 as printed: N-terminal acetyl, C-terminal amide, ReN at 4 stapled to S6 at 11
notes: Stapled peptide composition
B6: I-14 (peptide)
peptide: Ac-FDA[R8]D[Nle]AAFV[PyrS]FWQ-NH2
modifications: staple 4-11; not fully specified; printed as Ac-Phe-Asp-Ala-R8-Asp-nLeu-Ala-Ala-Phe-Val-PyrS-Phe-Trp-Gln-NH2
notes: Stapled peptide composition
B7: I-15 (peptide)
peptide: Ac-FDA[R8]D[Cha]AAFV[PyrS]FWQ-NH2
modifications: staple 4-11; not fully specified; printed as Ac-Phe-Asp-Ala-R8-Asp-Cha-Ala-Ala-Phe-Val-PyrS-Phe-Trp-Gln-NH2
notes: Stapled peptide composition
B8: I-16 (peptide)
peptide: Ac-FDA[R8]D[Cha]AAFV[PyrS]FWQ-NH2
modifications: staple 4-11; not fully specified; printed as Ac-Phe-Asp-Ala-R8-Asp-Cha-Ala-Ala-Phe-Val-PyrS-Phe-Trp-Gln-NH2
notes: Stapled peptide composition
B9: I-11 (peptide)
peptide: Ac-FDA[R8]D[Bip]AAFV[PyrS″]FWQ-NH2
modifications: staple 4-11; not fully specified; printed as Ac-Phe-Asp-Ala-R8-Asp-Bip-Ala-Ala-Phe-Val-PyrS-Phe-Trp-Gln-NH2
notes: Stapled peptide composition
B10: I-20 (peptide)
peptide: Ac-FDA[R8]DDADFV[PyrS]FWQ-NH2
modifications: staple 4-11; not fully specified; printed as Ac-Phe-Asp-Ala-R8-Asp-Asp-Ala-Asp-Phe-Val-PyrS-Phe-Trp-Gln-NH2
notes: Stapled peptide composition
B11: I-4 (peptide)
peptide: Ac-FDA[R8]DEAAFV[PyrS″]FWQ-NH2
modifications: staple 4-11; not fully specified; printed as Ac-Phe-Asp-Ala-R8-Asp-Glu-Ala-Ala-Phe-Val-PyrS-Phe-Trp-Gln-NH2
notes: Stapled peptide composition
B12: I-21 (peptide)
peptide: Ac-FDA[R8]DDAEFV[PyrS]FWQ-NH2
modifications: staple 4-11; not fully specified; printed as Ac-Phe-Asp-Ala-R8-Asp-Asp-Ala-Glu-Phe-Val-PyrS-Phe-Trp-Gln-NH2
notes: Stapled peptide composition
B13: I-19 (peptide)
peptide: Ac-FDA[R8]DDADFV[PyrS]FWQ-NH2
modifications: staple 4-11; not fully specified; printed as Ac-Phe-Asp-Ala-R8-Asp-Asp-Ala-Asp-Phe-Val-PyrS-Phe-Trp-Gln-NH2
notes: Stapled peptide composition
B14: I-31 (peptide)
peptide: Ac-FDA[R7]DDAAFV[PyrS]FWQ-NH2
modifications: staple 4-11; not fully specified; printed as Ac-Phe-Asp-Ala-R7-Asp-Asp-Ala-Ala-Phe-Val-PyrS-Phe-Trp-Gln-NH2
notes: Stapled peptide composition

These binders were tested against T1, full-length beta-Catenin (Uniprot ID …) (assay: AlphaScreen competition vs biotin-TCF4(10-53) on full-length beta-catenin).
Procedure: Equal volume of the titrated peptide was added to the plate and incubated for 15 minutes at 20° C. Then 4 uL of donor and 4 uL acceptor beads at 10 ug/mL were added to the plate, for a 16 uL reaction pool and protected from light for 60 minutes at 20° C. prior to read. Reads were performed on a CLARIOstar plate reader (BMG Labtech) in duplicate, and data were fitted to a 1:1 binding model with hill slope using an in-house script. All provided concentrations are final concentrations.

Ac-FDA[R8]D[3Pal]AAFV[PyrS″]FWQ-NH2 (staple 4-11, Stapled peptide composition) [I-10] and Ac-FDA[RdN]DDAAFV[S7]FWQ-NH2 (staple 4-11; also: later-eluting isomer of same sequence as I-1, Stapled peptide composition) [I-2] cannot be ordered by EC50: ≥ 10 µM for the first, ≥ 10 µM for the second.

Going from B1 to Ac-FDA[R8]D[Phe(4-COOH)]AAFV[PyrS″]FWQ-NH2 (staple 4-11, Stapled peptide composition) [I-8], the EC50 rises from 7.35 µM to ≥ 10 µM.

B2 and Ac-FDA[R8]D[Bip]AAFV[PyrS(3)]FWQ-NH2 (staple 4-11, Stapled peptide composition) [I-12] cannot be ordered by EC50: ≥ 10 µM for the first, ≥ 10 µM for the second.

Ac-FDA[ReN]DDAAFV[S5]FWQ-NH2 (staple 4-11, Stapled peptide composition) [I-27] and B3 are within 1.5-fold of each other in EC50: 6.82 µM for the first, 8.57 µM for the second.

Ac-FDA[R8]D[Phe(4-COOH)]AAFV[PyrS″]FWQ-NH2 (staple 4-11, Stapled peptide composition) [I-7] and Ac-FDA[R8]D[3Pal]AAFV[PyrS″]FWQ-NH2 (staple 4-11, Stapled peptide composition) [I-9] cannot be ordered by EC50: ≥ 10 µM for the first, ≥ 10 µM for the second.

Compared with B4, Ac-FDA[R8]DDA[Aad]FV[PyrS″]FWQ-NH2 (staple 4-11; also: earlier-eluting HPLC peak, Stapled peptide composition) [I-23] is lower in EC50: ≥ 10 µM for the first, 9.22 µM for the second.

B5 and B6 are within 1.5-fold of each other in EC50: 8.46 µM for the first, 9.76 µM for the second.

Compared with Ac-FDA[R5]DDAAFV[SeN]FWQ-NH2 (staple 4-11, Stapled peptide composition) [I-25], Ac-FDA[R8]D[hLeu]AAFV[PyrS]FWQ-NH2 (staple 4-11, Stapled peptide composition) [I-17] is higher in EC50: 7.22 µM for the first, ≥ 10 µM for the second.

Compared with Ac-FDA[R7″]DDAAFV[PyrS″]FWQ-NH2 (staple 4-11, Stapled peptide composition) [I-30], B7 is higher in EC50: 8.82 µM for the first, ≥ 10 µM for the second.

First: Ac-FDA[R6]DDAAFV[SeN]FWQ-NH2 (staple 4-11, Stapled peptide composition) [I-26]
Second: B8
The EC50 of the first is lower: 8.11 µM for the first, ≥ 10 µM for the second.

B9 and Ac-FDA[R8]D[Aad]AAFV[PyrS(3)]FWQ-NH2 (staple 4-11; also: earlier-eluting HPLC isomer, E/Z not given here, Stapled peptide composition) [I-5] cannot be ordered by EC50: ≥ 10 µM for the first, ≥ 10 µM for the second.

Going from Ac-FDA[R8]DEAAFV[PyrS″]FWQ-NH2 (staple 4-11, Stapled peptide composition) [I-3] to B10, the EC50 rises from 9.13 µM to ≥ 10 µM.

First: B11
Second: Ac-FDA[R8]DDAEFV[PyrS]FWQ-NH2 (staple 4-11; also: later-eluting HPLC isomer peak, Stapled peptide composition) [I-22]
The EC50 of the first is lower: 5.89 µM for the first, ≥ 10 µM for the second. The first is the more potent here.

B12 and B13 cannot be ordered by EC50: ≥ 10 µM for the first, ≥ 10 µM for the second.

First: Ac-FDA[R8]D[Aad]AAFV[PyrS]FWQ-NH2 (staple 4-11, Stapled peptide composition) [I-6]
Second: Ac-FDA[R8]D[Nle]AAFV[PyrS]FWQ-NH2 (staple 4-11, Stapled peptide composition) [I-13]
The EC50 of the first is lower: 6.5 µM for the first, ≥ 10 µM for the second. The first is the more potent here.

B14 showed an EC50 of 7.22 µM.
